In series [1] the target is Complement C3b (Complement Technology) (human) (UniProt P01024). Nature of the series: cell-based or functional assay.
The target in series [2] is Complement C3b (Complement Technology), P01024.
For a further series, the target named is T1, C3b (Homo sapiens, UniProt P01024).
T1 construct: Factor I, Factor H, C3b, and iC3b proteins were purchased; purchased Complement Technology Inc (Tyler, Tex.)
The series is described as follows: Cofactor assay of bioactivity of purified and recombinant CFI. Type of series: biochemical. Particulars: for estimated EC50 of CFI (95% limits in parentheses): three experiments in triplicate, CFH and C3b, 37° C. 1 hr. The procedure: The bioactivity measurements were conducted in triplicate and run on three occasions. Both CFI stock solutions were diluted in a 1/3 log series into 8 substock solutions starting at […] CFI. To maintain the CFI bioactivity in low concentration, 10 μg/mL CFH was used. Cofactor assays were set up by mixing […] of 2×CFI substock solutions with […] of CFH and C3b 2× mixture at a final concentration of […] for each reaction. The reaction mixtures were incubated at 37° C. for 1 hr, then the iC3b production in reactions was evaluated by a specific ELISA.
In the assay, 1 mU of CFI bioactivity is defined as the inverse of the amount of CFI that generates half of the maximal concentration of iC3b that can be produced (EC50). To obtain CFI bioactivity of a sample the following calculation is applied: 1/(EC50 of CFI in μg). This equation will result in CFI bioactivity levels expressed as U/μg of CFI. […] The model fitted to the data also predicted the EC50 recombinant to purified ratio.
This value provides the amount of CFI in ng that generates ½ the maximal amount of iC3b. Dividing these amounts by 1000 we convert the numbers to μg.

The values below come from patent US20160139118A1, “NOVEL ASSAY” (GLAXOSMITHKLINE INTELLECTUAL PROPERTY (NO.2) LIMITED, priority 2013, published 2016).

With “Complement factor I, purified human serum protein (Complement Technology) (from UniProt P05156 19-583) (enzyme)”, in series [1], the CFI bioactivity (inverse of EC50 in µg) was 3070 U/µg of CFI; the EC50 of CFI in cofactor assay (conversion of C3b into iC3b, with CFH), PBS control was 0.686 µg/mL; the EC50 of CFI in cofactor assay (iC3b generation, 80 CFH and C3b, 1 hr), three experiments was 0.0326 µg/mL.

On to “Recombinant complement factor I (GSK) (from UniProt P05156 19-583) (enzyme)”, for which, in series [1], the CFI bioactivity (inverse of EC50 in µg) was 1640 U/µg of CFI; the EC50 of CFI in cofactor assay (iC3b generation, 80 CFH and C3b, 1 hr), three experiments worked out at 0.0608 µg/mL; the EC50 recombinant to purified ratio amounted to 1.8.

B1: Mouse plasma complement factor I (protein)
chain: RSPSASDLPQEELVDQKCLLQKYTHRSCNKVFCQPWQRCIEGTCICKLPYQCPRAGTPVCAMNGRSYPTYCHQKSFECLHPEIKFSHNGTCAAEGKFNVSLIYGRTKTEGLVQVKLVDQDERMFICKNSWSMAEANVACVDLGFPLGVRDIQGSFNISGNLHINDTECLHVHCRGVETSLAECAFTKRRTELSNGLAGVVCYKQDADFPTSLSFQCVNGKHIPQEKACNGVNDCGDQSDELCCKGCRGNASLCKSGVCIPDQYKCNGEVDCITGEDESRCEEDRQQNIPKGLARSAQGEAEIETEETEMLTPGMDNERKRIKSLLPKLSCGVKRNTHTRRKRVIGGKPANVGDYPWQVAIKDGQRITCGGIYIGGCWILTAAHCVRPSRAHSYQVWTALLDWLKPNSQLGIQTVKRVIVHEKYNGATFQNDIALIEMKMHTGKKECELPNSVPACVPWSPYLFQPNDRCIISGWGRGKDNQKVYSLRWGEVDLIGNCSQFYPDRYYEKEMQCAGTRDGSIDACKGDSGGPLVCEDINNVTYVWGIVSWGENCGKPEFPGVYTRVANYFDWISYHVGRSLVSQHNV
As to B1, the “cofactor assay with mouse plasma as source of CFI, human CFH and C3b” value in series [2] was “mouse plasma CFI indeed can convert human C3b into iC3b in the presence of human CFH albeit with 10-times less activity”.

B2: Complement factor I, purified human serum protein (Complement Technology) (protein)
chain: KVTYTSQEDLVEKKCLAKKYTHLSCDKVFCQPWQRCIEGTCVCKLPYQCPKNGTAVCATNRRSFPTYCQQKSLECLHPGTKFLNNGTCTAEGKFSVSLKHGNTDSEGIVEVKLVDQDKTMFICKSSWSMREANVACLDLGFQQGADTQRRFKLSDLSINSTECLHVHCRGLETSLAECTFTKRRTMGYQDFADVVCYTQKADSPMDDFFQCVNGKYISQMKACDGINDCGDQSDELCCKACQGKGFHCKSGVCIPSQYQCNGEVDCITGEDEVGCAGFASVTQEETEILTADMDAERRRIKSLLPKLSCGVKNRMHIRRKRIVGGKRAQLGDLPWQVAIKDASGITCGGIYIGGCWILTAAHCLRASKTHRYQIWTTVVDWIHPDLKRIVIEYVDRIIFHENYNAGTYQNDIALIEMKKDGNKKDCELPRSIPACVPWSPYLFQPNDTCIVSGWGREKDNERVFSLQWGEVKLISNCSKFYGNRFYEKEMECAGTYDGSIDACKGDSGGPLVCMDANNVTYVWGVVSWGENCGKPEFPGVYTKVANYFDWISYHVGRPFISQYNV
B2: in series [2], the “amount of CFI needed to cleave 50% of the available C3b (re-analysis, 4-parameter logistic)” value is reported as “The amount of CFI needed to cleave 50% of the available C3b was approximately 632 ng/ml”.

B3: purified CFI: CFI purified from serum (CompTech) (protein)
chain: B2 chain
Regarding B3, the “estimated EC50 of CFI (95% limits in parentheses)” value with C3b is 32.6 (9.3-108.8) ng/ml.

B4: recombinant CFI: CFI generated by recombinant means (GSK) (protein)
chain: B2 chain
As for B4, the “EC50 recombinant to purified ratio” value in the series with C3b (model fitted to data of three experiments, P<0.001 vs 1) is reported as 1.8 (1.5-2.2). For the same molecule, in the series with C3b (overall result), the “times lower bioactivity than material purified from serum” value is listed as “approximately 2 times”. Also, the “estimated EC50 of CFI (95% limits in parentheses)” value with C3b is reported as 60.8 (21.6-168.0) ng/ml.
